Laboratory results reported in patent publication US9988424 (DUKE UNIVERSITY, dated 2018).
Like-named read-outs stand apart in the source and are kept apart here.

Legend:
AE.A244 gp120 delta 11 = target: T1, AE.A244 gp120 delta 11 (HIV-1); experiment: SPR, mAb captured on anti-Fc, monomeric gp120 injected
T1 construct: also called E.A244gp120Δ11; AE.A244 Δ11 gp120

AE.A244 gD+ gp120 N160K [1] = target: T2, AE.A244 gD+ gp120 N160K (HIV-1); experiment: ELISA
T2 construct: domain: gp120

AE.A244 gD+ gp120 N160K [2] = target: T2, AE.A244 gD+ gp120 N160K; experiment: ELISA; remark: listed apart in the source
AE.A244 V1V2 Tags [3] = target: AE.A244 V1V2 Tags (HIV-1); experiment: SPR, mAb captured on anti-Fc, V1/V2 tags injected
D.9009SA V1V2 Tags = experiment: ELISA OD405nm, bar chart, antibody concentration not given
B.con env03 140CF = target: T3, B.con env03 140CF; experiment: as above
T3 construct: also called B.con gp140CF

A.Q23 V1V2 tags = A.Q23 V1V2 tags (HIV-1); experiment: as above
SIV CPZ US-1 gp140CF = target: T4, SIV CPZ US-1 gp140CF (SIVcpz); experiment: as above
T4 construct: also called US-1 SIVCPZ gp140CF
T4 chain: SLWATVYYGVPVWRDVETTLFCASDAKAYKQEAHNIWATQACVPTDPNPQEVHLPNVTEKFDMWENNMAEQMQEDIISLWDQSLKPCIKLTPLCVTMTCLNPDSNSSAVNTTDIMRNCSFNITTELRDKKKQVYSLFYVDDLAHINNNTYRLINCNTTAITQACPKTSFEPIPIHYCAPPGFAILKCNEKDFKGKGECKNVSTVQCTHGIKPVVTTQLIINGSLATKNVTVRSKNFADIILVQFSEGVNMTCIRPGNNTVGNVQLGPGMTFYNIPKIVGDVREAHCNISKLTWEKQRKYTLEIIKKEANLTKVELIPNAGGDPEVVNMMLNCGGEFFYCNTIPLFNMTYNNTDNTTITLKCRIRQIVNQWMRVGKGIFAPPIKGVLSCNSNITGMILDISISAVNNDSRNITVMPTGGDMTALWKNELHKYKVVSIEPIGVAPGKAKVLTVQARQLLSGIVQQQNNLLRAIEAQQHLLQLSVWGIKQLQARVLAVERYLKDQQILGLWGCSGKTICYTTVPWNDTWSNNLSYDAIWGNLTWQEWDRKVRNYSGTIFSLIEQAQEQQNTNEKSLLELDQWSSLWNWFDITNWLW

B.CaseA V1/V2 Tags = experiment: as above
B.040 gp140C [4] = experiment: as above
Con 6 120 = target: T5, Con 6 120; experiment: as above
T5 construct: also called Con 6 gp120

B.con gp140CF [5] = target: T6, B.con gp140CF; experiment: ELISA, OD405
T6 construct: also called B.con.env03 gp140CF

B. 684-6 gp140C = experiment: ELISA, OD405
AE.con gp140CF [6] = target: T7, AE.con gp140CF; experiment: ELISA, OD405
T7 construct: also called AE.con.env03 gp140CF

B.HXB/BAL gp140CFI = target: T8, B.HXB/BAL gp140CFI (HIV-1, UniProt P04578 33-680); experiment: ELISA, OD405
T8 construct: also called B.HxB/Ba gp140 CFI

B.9021 gp140C = B.9021 gp140C (HIV-1); experiment: ELISA, OD405
B. 681-7 gp140C = experiment: ELISA, OD405
B.63521 gp140C = experiment: ELISA, OD405
Con 6 gp120 [7] = experiment: ELISA, OD405
AE.97CNG2XF gp140CF = target: T9, AE.97CNG2XF gp140CF (HIV-1); experiment: ELISA, OD405
T9 construct: also called E.97CNGX2F gp140CF

B.62357 140C = target: T10, B.62357 140C; experiment: ELISA, OD405
T10 construct: also called B.62357 gp140C

G.con gp140CF [8] = target: T11, G.con gp140CF; experiment: ELISA, OD405
T11 construct: also called G.con.env03 gp140CF

C.CAP206 gp140CF.12 = C.CAP206 gp140CF.12 (HIV-1); experiment: ELISA, OD405
B.040 gp140C [9] = experiment: ELISA, OD405
Con 6 gp120 [10] = experiment: ELISA, OD405 at 10 ug/ml
B.040 gp140C [11] = experiment: ELISA, OD405 at 10 ug/ml
G.con gp140CF [12] = experiment: ELISA, OD405 at 10 ug/ml
AE.con gp140CF [13] = experiment: ELISA, OD405 at 10 ug/ml
B.62357 gp140C = target: T12, B.62357 gp140C; experiment: ELISA, OD405 at 10 ug/ml
T12 construct: also called B.62357 140C

C.1086 gp140 = target: T13, C.1086 gp140; experiment: ELISA, OD405 at 10 ug/ml
T13 construct: also called C.1086gp140C

B.con gp140CF [14] = experiment: ELISA, OD405 at 10 ug/ml
AE.A244 V1V2 Tags [15] = target: AE.A244 V1V2 Tags (HIV-1); experiment: ELISA

B1: CH59 (antibody, V domains shown)
VH: EVQLVESGGGLVQPGRSLRLSCAASGFTFDDGAMHWVRQAPGKGLEWVSGISWNSNIIAYADSVKGRFTISRDNAKNSLYLEMNSLRVEDTALYYCAKDSPRGELPLNYWGQGTLVTVSS
VL: SYELTQPPSVSVSPGQTARITCSGDALPKNYAYWYQQKSGQAPVLVIYEDSKRPSGIPERFSGSSSGTMATLTISGAQVEDEADYYCYSTDSSGNHRVFGGGTKLTVL
notes: also called mAb CH59
2.2 nM: Kd (AE.A244 gp120 delta 11)
1 nM: Kd (AE.A244 V1V2 Tags [3])
0.03 nM: EC50 (AE.A244 gD+ gp120 N160K [1]) | EC50 (AE.A244 gD+ gp120 N160K [2])

B2: CH59 reverted unmutated ancestor antibody (antibody, V domains shown)
VH: EVQLVESGGGLVQPGRSLRLSCAASGFTFDDYAMHWVRQAPGKGLEWVSGISWNSGSIGYADSVKGRFTISRDNAKNSLYLQMNSLRAEDTALYYCAKDSPRGELPFDYWGQGTLVTVSS
VL: SYELTQPPSVSVSPGQTARITCSGDALPKKYAYWYQQKSGQAPVLVIYEDSKRPSGIPERFSGSSSGTMATLTISGAQVEDEADYYCYSTDSSGNHRVFGGGTKLTVL
notes: also called CH59 RUA; CH59_RUA
no binding (tested: not given): binding result (D.9009SA V1V2 Tags) | binding result (B.con env03 140CF) | binding result (A.Q23 V1V2 tags) | binding result (SIV CPZ US-1 gp140CF) | binding result (B.CaseA V1/V2 Tags) | binding result (B.040 gp140C [4]) | binding result (Con 6 120)

B3: CH58 reverted unmutated ancestor antibody (antibody, V domains shown)
VH: EVQLVQSGAEVKKPGESLKISCKGSGYSFTSYWIGWVRQMPGKGLEWMGIIYPGDSDTRYSPSFQGQVTISADKSISTAYLQWSSLKASDTAMYYCARLGGRYYYDSSGYYYFDYWGQGTLVTVSS
VL: NFMLTQPHSVSESPGKTVTISCTRSSGSIASNYVQWYQQRPGSSPTTVIYEDNQRPSGVPDRFSGSIDSSSNSASLTISGLKTEDEADYYCQSYDSSSWVFGGGTKLTVL
notes: also called CH58 RUA; CH58_RUA
no binding (tested: 10 ug/ml): binding result (B.con gp140CF [5]) | binding result (B. 684-6 gp140C) | binding result (AE.con gp140CF [6]) | binding result (B.HXB/BAL gp140CFI) | binding result (B.9021 gp140C) | binding result (B. 681-7 gp140C) | binding result (B.63521 gp140C) | binding result (Con 6 gp120 [7]) | binding result (AE.97CNG2XF gp140CF) | binding result (B.62357 140C) | binding result (G.con gp140CF [8]) | binding result (C.CAP206 gp140CF.12) | binding result (B.040 gp140C [9]) | binding result (Con 6 gp120 [10]) | binding result (B.040 gp140C [11]) | binding result (G.con gp140CF [12]) | binding result (AE.con gp140CF [13]) | binding result (B.62357 gp140C) | binding result (C.1086 gp140) | binding result (B.con gp140CF [14])

B4: 697D (antibody, V domains shown)
VH: QVQLVQSGAEVKKPGSSVKVSCKASGGNFNTYTISWVRQAPGQGLEWMGRIIPIFGIVNPAQKFPGRVTINVDKSTNTAYMELSSLRSEDTAVYYCATSGVGLHFGYFDYWGQGTQVTVSS
VL: QSVLTQPPSVSGAPGQRVTISCTGSSSNIGAHYDVHWYQQLPGTAPKLLIYGNSNRPSGVPDRFSGSKSGTSASLAITGLQAEDEADYYCQSYDSSLSGYVFGTGTKVTVL
notes: also called mAb 697D; V2 conformational mAb 697D
~0.1 µg/mL: EC50 (read off the curve) (AE.A244 V1V2 Tags [15])
